Experiment [1] has as its target T1, thrombin (human, UniProt P00734 328-622). Kind of experiment: Kapp IIa/hep relative to plasma.at3.
In experiment [2] the target is T1, thrombin. The experiment is described as follows: Kapp IIa/prog relative to plasma.at3.
Experiment [3] has as its target T2, factor Xa (human, UniProt P00742 41-179; P00742 235-488, limits assumed).
T2 construct: also called fXa; human factor Xa
The experiment is described as follows: factor Xa prog: pseudo-first-order loss of chromogenic activity, no heparin, 25 C. How it is done: (§1) Polybrene was added with the chromogenic substrate to quench the heparin dependent reaction. […] This was plotted against the heparin concentration to calculate the second-order rate constant for the inhibition by the heparin-ATIII complex, (Kₕₑₚ) from the equation Kobs=Kₕₑₚ[H]ₒ([AT]ₒ/[AT]ₒ+Kd)+Kuncat[AT]ₒ

The target of experiment [4] is T2, factor Xa. The experiment is described as follows: Kapp fXa/hep relative to plasma.at3.
Experiment [5] deals with T1, thrombin. The experiment is described as follows: thrombin prog: pseudo-first-order loss of chromogenic activity, no heparin, 25 C. The protocol: as §1
Experiment [6] has as its target T2, factor Xa. Kind of experiment: Kapp fXa/prog relative to plasma.at3.
Experiment [7] addresses T1, thrombin. The experiment is described as follows: cell-based or functional assay.
Experiment [8] has as its target T2, factor Xa. The experiment is described as follows: cell-based or functional assay.
Experiment [9] addresses T3, human factor Xa (human, UniProt P00742 41-179; P00742 235-488, limits assumed).
T3 construct: the active enzyme is a two-chain form of it; also called fXa
The experiment is described as follows: residual enzyme activity against time, pseudo-first-order, progressive (no heparin).

In experiment [10] the target is T3, human factor Xa. Kind of experiment: residual enzyme activity against time, pseudo-first-order, with heparin. How it is done:
Polybrene was added with the chromogenic substrate to quench the heparin dependent reaction. The observed pseudo-first-order rate constants were calculated for each heparin (1 nM-5 nM) concentration from the slope of the log of residual proteinase activity vs. time. This was plotted against the heparin concentration to calculate the second-order rate constant for the inhibition by the heparin-ATIII complex, (Kₕₑₚ) from the equation Kobs=Kₕₑₚ[H]ₒ([AT]ₒ/[AT]ₒ+Kd)+Kuncat[AT]ₒ

In another experiment the target is human thrombin (human, UniProt P00734 328-622). Kind of experiment: residual enzyme activity against time, pseudo-first-order, progressive (no heparin).
For experiment [11], the target named is T4, human neutrophil elastase (human, UniProt P08246 30-247, limits assumed).
T4 sequence (looked up): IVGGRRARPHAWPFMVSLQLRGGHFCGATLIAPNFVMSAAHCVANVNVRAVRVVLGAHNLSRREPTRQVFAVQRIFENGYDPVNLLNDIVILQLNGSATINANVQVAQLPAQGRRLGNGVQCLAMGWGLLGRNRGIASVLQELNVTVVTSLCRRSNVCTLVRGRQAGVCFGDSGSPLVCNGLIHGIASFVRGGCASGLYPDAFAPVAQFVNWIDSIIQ
The experiment is described as follows: cell-based or functional assay.

T2 sequence (P00742 41-179 limits assumed, chain 1 of 2): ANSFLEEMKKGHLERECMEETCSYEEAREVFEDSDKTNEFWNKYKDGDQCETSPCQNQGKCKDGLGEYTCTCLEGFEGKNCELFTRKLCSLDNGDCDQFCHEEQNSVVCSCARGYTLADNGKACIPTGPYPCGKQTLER
T2 sequence (P00742 235-488 limits assumed, chain 2 of 2): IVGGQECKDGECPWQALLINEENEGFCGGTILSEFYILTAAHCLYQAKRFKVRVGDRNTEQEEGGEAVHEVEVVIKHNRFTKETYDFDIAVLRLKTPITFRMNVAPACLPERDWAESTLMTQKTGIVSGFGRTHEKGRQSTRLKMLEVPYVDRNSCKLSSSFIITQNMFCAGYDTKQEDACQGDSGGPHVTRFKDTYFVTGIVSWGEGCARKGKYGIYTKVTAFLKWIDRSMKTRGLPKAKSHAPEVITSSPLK
T3 sequence (P00742 41-179 limits assumed, chain 1 of 2): as the sequence (P00742 41-179 limits assumed, chain 1 of 2) above
T3 sequence (P00742 235-488 limits assumed, chain 2 of 2): as the sequence (P00742 235-488 limits assumed, chain 2 of 2) above

B1: LEAI.472 (other)
chain: SPVDICTAKPRDIPMNPMCIYRSPEKKATEDEGSEQKIPEATNRRVWELSKANSRFATTFYQHLADSKNDNDNIFLSPLSISTAFAMTKLGACNDTLQQLMEVFKFDTISEKTSDQIHFFFAKLNCRLYRKANKASKLVSANRLFGDKSLTFNETYQDISELVYGAKLQPLDFKENAEQSRAAINKWVSNKTEGRITDVIPSEAINELTVLVLVNTIYFKGLWKSKFSPENTRKELFYKADGESCSASMMYQEGKFRYRRVAEGTQVLELPFKGDDITMVLILPKPEKSLAKVEKELTPEVLQEWLDELEEMMLVVHMPRFRIEDGFSLKEQLQDMGLVDLFSPEKSKLPGIVAEGRDDLYVSDAFHKAFLEVNEEGSEAAASTALEANGRSLNPNRVTFKANRPFLVFIREVPLNTIIFMGRVANPCVK
In the case of B1, the “Kapp as a percentage of the plasma ATIII value” (from here on “Kapp as a percentage”) with thrombin [1] is 3%. Also, the “Kapp as a percentage” value in the experiment with thrombin [2] was found to be 4%. Moreover, the “kapp (apparent second-order inhibition rate constant)” value with factor Xa [3] was determined as 1800 M⁻¹ s⁻¹. Also, the “Kapp as a percentage” value with factor Xa [4] came to 52%. In addition, the “kapp (apparent second-order inhibition rate constant)” value with thrombin [5] was determined as 278 M⁻¹ s⁻¹. In the experiment with factor Xa [6], the “Kapp as a percentage” value was 86%. Further, in the experiment with thrombin [7], the “IC50 IIa/UFH; HCA #3” value stood at 110 nM, the “IC50 IIa/UFH; HCA #4” value was determined as 200 nM, the “rsd. IIa catG; CA #15; stg1 conc 200” value worked out at 1% and the “rsd. IIa hne; CA #15; stg1 conc 200” value came out at 21%. The “rsd. IIa no add; CA #15; stg1 conc 200” value with thrombin [7] was determined as 0%. In addition, in the experiment with factor Xa [8], the “IC50 fXa/UFH; HCA #3” value stood at 15 nM, the “IC50 fXa/UFH; HCA #4” value amounted to 38 nM, the “rsd. Xa catG; CA #15; stg1 conc 200” value stood at 0% and the “rsd. Xa hne; CA #15; stg1 conc 200” value was found to be 1%. Further, in the experiment with factor Xa [8], the “rsd. Xa no add; CA #15; stg1 conc 200” value is 0%.

B2: LEAI.472 (other)
chain: SPVDICTAKPRDIPMNPMCIYRSPEKKATEDEGSEQKIPEATNRRVWELSKANSRFATTFYQHLADSKNDNDNIFLSPLSISTAFAMTKLGACNDTLQQLMEVFKFDTISEKTSDQIHFFFAKLNCRLYRKANKASKLVSANRLFGDKSLTFNETYQDISELVYGAKLQPLDFKENAEQSRAAINKWVSNKTEGRITDVIPSEAINELTVLVLVNTIYFKGLWKSKFSPENTRKELFYKADGESCSASMMYQEGKFRYRRVAEGTQVLELPFKGDDITMVLILPKPEKSLAKVEKELTPEVLQEWLDELEEMMLVVHMPRFRIEDGFSLKEQLQDMGLVDLFSPEKSKLPGIVAEGRDDLYVSDAFHKAFLEVNEEGSEAAASTALEANGRSLNPNRVTFKANRPFLVFIREVPLNTIIFMGRVANPCVK
notes: Recombinant human ATIII variant made in Drosophila S2 cells on the S137A background
In the case of B2, the “kapp (apparent second-order inhibition rate constant)” value was 1800 M⁻¹ s⁻¹ in the experiment with human factor Xa [9], 298000 M⁻¹ s⁻¹ with human factor Xa [10] and 278 M⁻¹ s⁻¹ with human thrombin. Besides, the “halflife, min (HNE/hep)” value in experiment [11] came to 30.1 min.

B3: LEAI.480 (other)
chain: SPVDICTAKPRDIPMNPMCIYRSPEKKATEDEGSEQKIPEATNRRVWELSKANSRFATTFYQHLADSKNDNDNIFLSPLSISTAFAMTKLGACNDTLQQLMEVFKFDTISEKTSDQIHFFFAKLNCRLYRKANKASKLVSANRLFGDKSLTFNETYQDISELVYGAKLQPLDFKENAEQSRAAINKWVSNKTEGRITDVIPSEAINELTVLVLVNTIYFKGLWKSKFSPENTRKELFYKADGESCSASMMYQEGKFRYRRVAEGTQVLELPFKGDDITMVLILPKPEKSLAKVEKELTPEVLQEWLDELEEMMLVVHMPRFRIEDGFSLKEQLQDMGLVDLFSPEKSKLPGIVAEGRDDLYVSDAFHKAFLEVNEEGSEAAASTALEAYGRSLNPNRVTFKANRPFLVFIREVPLNTIIFMGRVANPCVK
notes: as for B2
B3: the “kapp (apparent second-order inhibition rate constant)” value came out at 24100 M⁻¹ s⁻¹ with human factor Xa [9], 489000 M⁻¹ s⁻¹ with human factor Xa [10] and 7310 M⁻¹ s⁻¹ with human thrombin. Further, the “halflife, min (HNE/hep)” value in experiment [11] was 19.9 min.

B4: LEAI.482 (other)
chain: SPVDICTAKPRDIPMNPMCIYRSPEKKATEDEGSEQKIPEATNRRVWELSKANSRFATTFYQHLADSKNDNDNIFLSPLSISTAFAMTKLGACNDTLQQLMEVFKFDTISEKTSDQIHFFFAKLNCRLYRKANKASKLVSANRLFGDKSLTFNETYQDISELVYGAKLQPLDFKENAEQSRAAINKWVSNKTEGRITDVIPSEAINELTVLVLVNTIYFKGLWKSKFSPENTRKELFYKADGESCSASMMYQEGKFRYRRVAEGTQVLELPFKGDDITMVLILPKPEKSLAKVEKELTPEVLQEWLDELEEMMLVVHMPRFRIEDGFSLKEQLQDMGLVDLFSPEKSKLPGIVAEGRDDLYVSDAFHKAFLEVNEEGSEAAASTALEAHGRSLNPNRVTFKANRPFLVFIREVPLNTIIFMGRVANPCVK
notes: as for B2
For B4, the “kapp (apparent second-order inhibition rate constant)” value with human factor Xa [9] came out at 5360 M⁻¹ s⁻¹; in the experiment with human factor Xa [10] it was 831000 M⁻¹ s⁻¹; with human thrombin, 2920 M⁻¹ s⁻¹. Besides, the “halflife, min (HNE/hep)” value in [11] was 25.3 min.

B5: leai(bv) (other, human, UniProt P01008 33-464, looked up)
chain: HGSPVDICTAKPRDIPMNPMCIYRSPEKKATEDEGSEQKIPEATNRRVWELSKANSRFATTFYQHLADSKNDNDNIFLSPLSISTAFAMTKLGACNDTLQQLMEVFKFDTISEKTSDQIHFFFAKLNCRLYRKAAKSSKLVSANRLFGDKSLTFNETYQDISELVYGAKLQPLDFKENAEQSRAAINKWVSNKTEGRITDVIPSEAINELTVLVLVNTIYFKGLWKSKFSPENTRKELFYKADGESCSASMMYQEGKFRYRRVAEGTQVLELPFKGDDITMVLILPKPEKSLAKVEKELTPEVLQEWLDELEEMMLVVHMPRFRIEDGFSLKEQLQDMGLVDLFSPEKSKLPGIVAEGRDDLYVSDAFHKAFLEVNEEGSEAAASTALEAIGRSLNPNRVTFKANRPFLVFIREVPLNTIIFMGRVANPCVK
notes: mature; also called LEAI (parent)
On to B5, for which the “Kapp as a percentage” value with thrombin [1] is 159%; with thrombin [2], 75%; in the experiment with factor Xa [4], 192%; with factor Xa [6], 457%. Moreover, the “kapp (apparent second-order inhibition rate constant)” value turned out to be 9550 M⁻¹ s⁻¹ with factor Xa [3] and 5280 M⁻¹ s⁻¹ with thrombin [5].

The values are drawn from patent publication US20060259987A1 (UNIVERSITY OF UTAH RESEARCH FOUNDATION, published 2006).
